B1: anti-NOTCH3 inhibitory (anti-N3(i)) mAb clone 75 (antibody, V domains shown)
VH: EVQLVESGGGLVQPGGSLRLSCAASGYAFTDYWMTWVRQAPGKGLEWVAEISPNSGGTNFNEKFKGRFTISVDNAKNSLYLQMNSLRAEDTAVYYCARGEIRYNWFAYWGQGTLVTVSS
VL: DIQMTQSPSSLSASVGDRVTITCKASQNVGNNIAWYQQKPGKAPKLLIYYASNRYTGVPSRFSGSGYGTDFTLTISSLQPEDFATYYCQRLYNSPFTFGGGTKVEIK
B2: Anti-N3(i)-vc0101 ADC (antibody, V domains shown)
VH: EVQLVESGGGLVQPGGSLRLSCAASGYAFTDYWMTWVRQAPGKGLEWVAEISPNSGGTNFNEKFKGRFTISVDNAKNSLYLQMNSLRAEDTAVYYCARGEIRYNWFAYWGQGTLVTVSS
VL: DIQMTQSPSSLSASVGDRVTITCKASQNVGNNIAWYQQKPGKAPKLLIYYASNRYTGVPSRFSGSGYGTDFTLTISSLQPEDFATYYCQRLYNSPFTFGGGTKVEIK

Tests used:
[1] = target: human NOTCH3 NRR_AviHis recombinant protein (Homo sapiens, UniProt Q9UM47); assay: SPR
[2] = target: human NOTCH3 receptor expressed on U2OS cells (U2OS-hN3) (human, UniProt Q9UM47); assay: ELISA
[3] = target: mouse NOTCH3 (mN3) expressed on U2OS cells (U2OS-mN3) (mouse, UniProt Q61982); assay: ELISA
[4] = target: human NOTCH1 receptor expressed on U2OS cells (U2OS-hN1) (Homo sapiens, UniProt P46531); assay: ELISA
[5] = target: mouse NOTCH1 receptor expressed on U2OS cells (U2OS-mN1) (Mus musculus, UniProt Q01705); assay: ELISA
[6] = target: NOTCH3 endogenous on MDA-MB-468 cells (human (endogenous in MDA-MB-468), UniProt Q9UM47); assay: immunostaining of cells or tissue
Sequence of NOTCH3 endogenous on MDA-MB-468 cells (Q9UM47 40-2321): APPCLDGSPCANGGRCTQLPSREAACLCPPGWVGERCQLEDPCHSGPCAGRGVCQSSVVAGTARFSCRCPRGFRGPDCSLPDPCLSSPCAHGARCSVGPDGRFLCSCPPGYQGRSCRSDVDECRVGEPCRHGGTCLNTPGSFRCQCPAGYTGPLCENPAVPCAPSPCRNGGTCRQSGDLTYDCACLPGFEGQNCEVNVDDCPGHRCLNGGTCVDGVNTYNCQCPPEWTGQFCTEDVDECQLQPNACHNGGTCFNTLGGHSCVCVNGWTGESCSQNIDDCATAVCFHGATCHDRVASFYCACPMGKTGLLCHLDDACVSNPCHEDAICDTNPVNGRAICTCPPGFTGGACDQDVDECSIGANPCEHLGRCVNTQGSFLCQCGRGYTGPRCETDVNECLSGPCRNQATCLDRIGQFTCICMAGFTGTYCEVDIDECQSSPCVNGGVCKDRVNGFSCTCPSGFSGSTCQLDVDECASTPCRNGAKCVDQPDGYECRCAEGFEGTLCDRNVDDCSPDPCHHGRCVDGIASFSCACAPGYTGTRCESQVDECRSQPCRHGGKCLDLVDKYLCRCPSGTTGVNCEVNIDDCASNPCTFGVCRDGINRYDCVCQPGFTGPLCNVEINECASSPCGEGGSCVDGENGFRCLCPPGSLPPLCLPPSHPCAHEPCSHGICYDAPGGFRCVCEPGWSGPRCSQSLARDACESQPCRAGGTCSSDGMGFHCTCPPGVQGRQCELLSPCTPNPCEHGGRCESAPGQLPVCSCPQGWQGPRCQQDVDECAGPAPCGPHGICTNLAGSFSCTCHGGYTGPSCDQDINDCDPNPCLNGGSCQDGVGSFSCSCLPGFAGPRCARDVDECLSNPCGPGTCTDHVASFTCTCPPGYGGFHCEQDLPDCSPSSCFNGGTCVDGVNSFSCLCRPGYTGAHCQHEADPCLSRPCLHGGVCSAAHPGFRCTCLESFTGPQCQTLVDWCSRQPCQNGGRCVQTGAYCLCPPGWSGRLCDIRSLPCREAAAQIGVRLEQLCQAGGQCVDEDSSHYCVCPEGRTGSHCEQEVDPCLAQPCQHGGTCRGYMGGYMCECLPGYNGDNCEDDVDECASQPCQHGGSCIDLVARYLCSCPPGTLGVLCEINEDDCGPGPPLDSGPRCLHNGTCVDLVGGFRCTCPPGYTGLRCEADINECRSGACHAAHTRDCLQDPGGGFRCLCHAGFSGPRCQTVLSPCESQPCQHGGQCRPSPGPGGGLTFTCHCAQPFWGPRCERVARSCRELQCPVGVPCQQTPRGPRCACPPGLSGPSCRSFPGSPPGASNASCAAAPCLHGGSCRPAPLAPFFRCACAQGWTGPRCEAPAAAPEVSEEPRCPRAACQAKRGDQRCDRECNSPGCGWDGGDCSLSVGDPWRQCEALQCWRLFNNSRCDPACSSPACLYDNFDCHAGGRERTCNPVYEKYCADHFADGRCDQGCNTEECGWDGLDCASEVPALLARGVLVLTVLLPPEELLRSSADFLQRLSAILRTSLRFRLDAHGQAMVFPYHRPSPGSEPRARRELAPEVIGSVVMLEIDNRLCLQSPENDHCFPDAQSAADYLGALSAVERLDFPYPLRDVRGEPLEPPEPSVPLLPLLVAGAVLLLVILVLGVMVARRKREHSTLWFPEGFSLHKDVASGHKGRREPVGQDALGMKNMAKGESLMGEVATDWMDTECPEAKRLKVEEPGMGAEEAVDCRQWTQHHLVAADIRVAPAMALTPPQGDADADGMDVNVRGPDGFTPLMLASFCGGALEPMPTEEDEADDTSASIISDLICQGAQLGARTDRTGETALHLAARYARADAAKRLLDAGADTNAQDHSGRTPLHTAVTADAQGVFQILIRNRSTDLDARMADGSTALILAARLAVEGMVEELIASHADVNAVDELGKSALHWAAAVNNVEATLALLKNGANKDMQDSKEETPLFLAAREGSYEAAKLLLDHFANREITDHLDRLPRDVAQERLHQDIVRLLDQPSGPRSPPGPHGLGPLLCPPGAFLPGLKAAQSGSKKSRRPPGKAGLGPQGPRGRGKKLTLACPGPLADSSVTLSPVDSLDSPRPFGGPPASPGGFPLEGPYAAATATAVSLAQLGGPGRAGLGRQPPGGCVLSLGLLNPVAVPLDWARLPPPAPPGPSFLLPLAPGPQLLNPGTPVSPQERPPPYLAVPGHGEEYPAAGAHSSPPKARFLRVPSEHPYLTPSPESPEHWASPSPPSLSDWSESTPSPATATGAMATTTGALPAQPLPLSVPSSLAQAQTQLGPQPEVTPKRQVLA

Sequence of human NOTCH3 receptor expressed on U2OS cells (U2OS-hN3) (Q9UM47 40-2321): as above
Sequence of mouse NOTCH1 receptor expressed on U2OS cells (U2OS-mN1) (Q01705 19-2531): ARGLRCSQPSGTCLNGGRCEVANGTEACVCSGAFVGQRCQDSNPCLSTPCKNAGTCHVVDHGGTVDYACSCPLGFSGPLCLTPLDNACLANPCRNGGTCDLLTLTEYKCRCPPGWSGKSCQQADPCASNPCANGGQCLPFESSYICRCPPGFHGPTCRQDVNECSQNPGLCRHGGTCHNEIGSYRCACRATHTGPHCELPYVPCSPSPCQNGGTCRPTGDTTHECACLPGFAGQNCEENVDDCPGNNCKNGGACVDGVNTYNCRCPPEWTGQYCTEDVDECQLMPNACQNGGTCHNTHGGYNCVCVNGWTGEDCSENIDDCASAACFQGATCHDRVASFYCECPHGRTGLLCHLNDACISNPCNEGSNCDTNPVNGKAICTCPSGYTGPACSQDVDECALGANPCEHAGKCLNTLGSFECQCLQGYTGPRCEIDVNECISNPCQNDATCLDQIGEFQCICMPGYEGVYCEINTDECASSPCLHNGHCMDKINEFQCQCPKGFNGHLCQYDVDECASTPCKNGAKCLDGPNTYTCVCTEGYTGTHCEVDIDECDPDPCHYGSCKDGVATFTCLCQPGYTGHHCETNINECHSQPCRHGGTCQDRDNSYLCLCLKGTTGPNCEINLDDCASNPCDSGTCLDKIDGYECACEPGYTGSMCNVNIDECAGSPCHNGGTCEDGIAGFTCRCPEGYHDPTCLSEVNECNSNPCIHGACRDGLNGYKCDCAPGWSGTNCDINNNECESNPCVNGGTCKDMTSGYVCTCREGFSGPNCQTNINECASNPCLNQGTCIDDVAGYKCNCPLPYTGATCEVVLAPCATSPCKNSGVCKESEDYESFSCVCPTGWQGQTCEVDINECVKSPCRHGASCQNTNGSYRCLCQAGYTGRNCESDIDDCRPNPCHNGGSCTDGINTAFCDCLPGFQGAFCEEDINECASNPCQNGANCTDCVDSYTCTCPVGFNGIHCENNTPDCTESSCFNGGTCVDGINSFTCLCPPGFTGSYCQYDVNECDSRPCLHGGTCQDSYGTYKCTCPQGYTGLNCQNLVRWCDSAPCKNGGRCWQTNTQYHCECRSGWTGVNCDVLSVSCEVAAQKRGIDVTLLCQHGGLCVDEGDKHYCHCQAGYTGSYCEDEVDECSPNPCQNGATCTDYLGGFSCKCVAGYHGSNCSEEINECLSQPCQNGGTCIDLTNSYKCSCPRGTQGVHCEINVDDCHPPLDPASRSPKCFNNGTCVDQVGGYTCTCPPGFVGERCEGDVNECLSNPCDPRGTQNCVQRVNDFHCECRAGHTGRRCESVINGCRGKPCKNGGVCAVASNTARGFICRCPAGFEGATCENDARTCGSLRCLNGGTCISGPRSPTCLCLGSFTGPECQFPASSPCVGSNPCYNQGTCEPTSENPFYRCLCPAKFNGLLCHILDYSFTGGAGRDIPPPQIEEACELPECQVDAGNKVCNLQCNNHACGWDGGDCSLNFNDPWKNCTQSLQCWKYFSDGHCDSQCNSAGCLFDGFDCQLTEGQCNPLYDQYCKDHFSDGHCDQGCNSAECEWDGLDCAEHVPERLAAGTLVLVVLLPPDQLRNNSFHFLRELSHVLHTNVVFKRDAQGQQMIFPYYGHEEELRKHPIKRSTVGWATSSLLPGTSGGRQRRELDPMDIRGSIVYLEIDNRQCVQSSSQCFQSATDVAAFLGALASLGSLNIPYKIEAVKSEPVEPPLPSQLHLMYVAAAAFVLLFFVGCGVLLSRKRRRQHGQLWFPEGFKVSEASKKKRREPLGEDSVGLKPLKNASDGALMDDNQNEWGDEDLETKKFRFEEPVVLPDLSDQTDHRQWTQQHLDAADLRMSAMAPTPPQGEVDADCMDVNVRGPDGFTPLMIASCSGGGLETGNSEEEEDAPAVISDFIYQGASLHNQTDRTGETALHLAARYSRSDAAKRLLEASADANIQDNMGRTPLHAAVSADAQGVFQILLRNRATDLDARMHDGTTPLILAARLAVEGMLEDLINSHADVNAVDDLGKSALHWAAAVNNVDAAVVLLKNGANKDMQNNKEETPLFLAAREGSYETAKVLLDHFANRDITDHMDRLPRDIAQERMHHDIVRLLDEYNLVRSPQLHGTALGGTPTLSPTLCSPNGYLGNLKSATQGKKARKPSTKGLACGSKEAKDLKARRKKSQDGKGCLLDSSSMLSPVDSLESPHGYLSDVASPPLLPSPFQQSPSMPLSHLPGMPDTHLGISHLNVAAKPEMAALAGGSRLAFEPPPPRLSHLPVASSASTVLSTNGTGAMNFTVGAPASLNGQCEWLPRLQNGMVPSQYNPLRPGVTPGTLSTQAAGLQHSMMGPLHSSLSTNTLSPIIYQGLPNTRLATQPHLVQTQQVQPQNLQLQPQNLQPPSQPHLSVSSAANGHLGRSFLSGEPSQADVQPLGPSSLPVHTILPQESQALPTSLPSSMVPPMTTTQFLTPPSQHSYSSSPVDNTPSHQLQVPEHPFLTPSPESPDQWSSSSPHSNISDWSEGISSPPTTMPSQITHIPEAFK

Binder | binding result [1] | binding result [2] | binding result [3] | binding result [4] | binding result [5] | binding result [6]
B1 | binds | binds | no binding | no binding | no binding | binds
B2 | – | binds | – | – | – | –

Reference: paper PMC8149476 (Cell Reports Medicine, 2021)
